FireProtDB (doi:10.1021/bi049405c)
Several values for one entry are separate records, joined by “and”; a condition that tells them apart may be missing. Equal entries are not always repeated.

Conditions: Escherichia coli (strain K12); pH 7.6; 25 °C; GdnHCl; CD; HEPES 10 mM; KCl 100 mM; transition: 3; reversible: yes; whole UniProt chain shown

B1: Nickel-responsive regulator wild type, P0A6Z6 (protein)
chain: MQRVTITLDDDLLETLDSLSQRRGYNNRSEAIRDILRSALAQEATQQHGTQGFAVLSYVYEHEKRDLASRIVSTQHHHHDLSVATLHVHINHDDCLEIAVLKGDMGDVQHFADDVIAQRGVRHGHLQCLPKED
Question: With B1 as the protein, how does the “denaturant midpoint (higher = more stable)” value read?
Answer: 1.2 M and 2.8 M
